Measurements published in article PMC10541619 (bioRxiv, 2023).

Target: the molecule itself
Assay: mass photometry

B1: RADX-N (RADX 43-560, C-terminal truncation construct) (domain or fragment, human, UniProt Q6NSI4 43-560, looked up)
chain: RSWIQKVLEQIMDSPRQCVTPSEVVPVTVLAVQRYLLEDEPRDTVPKPPLYCYDVTISDGVYQEKCYLDPSLNSLVYQNILKVGIQMRISRVSCLYNEKRIGQGILCIDNVHCGETSDSISLETPFRNRAHQEKPERPLRGGKSHYLALWNNEDPYGDIWLTDKQPEEHNFSDTKIISLSHLEMTWTNRRNFPALLVRILHKSKLRYYGKPDKKMIEPYQTFLEVADSSGTVSVIMWNALCPEWYKSLRVGLVLLLQDYSVKKSYPFRIQPVPVDPQIKLISTMEICLNLRDPPTNIIIIPEKQVKPEWRLPKLNHRFTTRSELDDMPENCICDVIGLLVFVGRVQRSKKKENREDFWSYRWIHIADGTSEQPFIVELFSTSQPEIFENIYPMAYFVCTQLKVVRNDNQVPKLLYLTTTNESGVFITGHRGQPYTYDAKVKNFIQWIRTKSDSGEQKNMVIGGYYPYPPVPETFSKYSSSIKVESLLTAISEVRKEIEDLQYREQKRIAIQGIITAIK
  stoichiometry N: 2
